Laboratory results from patent US20220380473A1, “ANTI-GAL3 ANTIBODIES AND USES THEREOF” (TrueBinding, Inc., priority 2019, published 2022).
“Also recorded” adds a separate entry of the source.

What was measured:
human Gal3 protein = experiment: Epitope binding of IMT001, hGal3 peptide array dot blot and peptide ELISA; conditions: dot blot, 1 ug/ml antibody
Experimental: A peptide array containing 24 20 amino acid peptides overlapping by 10 amino acid and covering the whole human Gal3 protein sequence was synthesized (Genscript, Piscataway, N.J.) (FIG. 11A). 20 μg of each peptide was dot blotted onto a membrane. After blocking with 5% milk in PBS, the membrane was incubated with 1 ug/ml IMT001 antibody at 4C for overnight. After three times of washes, the membrane was incubated with 1:8000 diluted anti mIgG HRP antibody (Southern Biotech, Birmingham, Ala.) for one hour. After three times of washes, the membrane was incubated with Western ECL blotting substrates (Bio-Rad, Hercules, Calif.) and developed (FIG. 11B).
To further define binding epitope of IMT001 on the above peptide, 8 shorter peptides derived from it were synthesized (Genscript, Piscataway, N.J.) (FIG. 11C) and their binding by IMT001 was determined by ELISA (FIG. 11D). 96 well Elisa plate (Thermo Scientific) was coated with these peptides in PBS buffer and incubated at 4° C. for overnight. The plate was washed three times with TBST and then blocked with PBST buffer containing 2% BSA at room temperature for 1 h. IMT001 at 10 μg/mL was incubated in the coated Elisa plate at room temperature for 1 h. […] The optical density (OD) was read at 450 nm. The results were expressed as the average OD of duplicates±SD.

[1] = test system: mouse unilateral ureteral obstruction (UUO) model of kidney fibrosis; experiment: Mouse UUO model of kidney fibrosis (Example 32); type: in vivo; conditions: administered one day after UUO surgery
Description: To further evaluate the ability of GAL3-targeted antibodies with the ability to block TIM3-GAL3 assembly to impact fibrosis, we evaluated the impact of humanized IMT001-4 and IMT006-1 in the mouse unilateral ureteral obstruction (UUO) model of kidney fibrosis. Briefly, 8-week-old C57BL/6J male mice were divided into sham, UUO with HuIgG4−, and UUO with HuIMT001-4, HuIMT006-1, and UUO with metformin-treatment. HuIgG4, HuIMT001-4 and HuIMT006-1 were each administered by intraperitoneal route at 10 mg/kg Q2Dx3 whereas metformin (500 mg/kg/day) was administered to mice dissolved in drinking water. In some settings therapeutic antibodies or metformin was administered 1 day before UUO, whereas in other experiments therapeutic antibodies or metformin was administered 1 day after UUO. After 7 days of UUO surgery, mice were sacrificed, left kidney was harvested and fixed with 4% paraformaldehyde for immunohistochemistry (IHC) and blood was collected in Heparin-EDTA tubes for blood biochemistry analysis. Levels of plasma mouse TIM-1/KIM-1/HAVCR were measured using a commercial ELISA kit (Catalog #MKM100; R&D Systems, Minneapolis, Minn.) according to the protocol provided by the manufacturer. Levels of plasma mouse Lipocalin-2/NGAL were measured using a commercial ELISA kit (Catalog #DY1857; R&D Systems, Minneapolis, Minn.) according to the protocol provided by the manufacturer. 5 um sections of fixed kidney specimens were produced and processed for picosirius red staining as described for liver specimens above.
To evaluate the robustness of TIM3-GAL3 blocking antibodies in reducing kidney fibrosis, the ability of mIMT001 to inhibit fibrosis when administered one day after UUO surgery was evaluated. Following UUO surgery and treatment with isotype or control antibodies, kidney specimens were harvested and stained by IHC for Collagen 1a1 (Col1a1), a marker of kidney fibrosis.

[2] = test system: Human peripheral blood mononuclear cells (PBMCs); experiment: CMV antigen recall assay, IFN gamma; type: cell-based; conditions: 10 ug/ml final, CMV 4 days, vs isotype control
Experimental: To assess the ability of Gal3-targeted antibodies with Gal3-TIM-3 blocking activity to enhance T-cell mediated responses, a CMV antigen recall assay was used. Human peripheral blood mononuclear cells (PBMCs) (Astarte, donor ID 230) were quickly thawed in 37 C water bath, resuspended in 20 ml of RPMI media with 10% FBS, and centrifuged at 1500 RPM for 5 min. Media was discarded pellet resuspended in 20 ml media and counted by […], and diluted to a final concentration of 4 million/ml in Serum free Media (Lonza). 50 ul of media plus cells (200,000 cells/well) were added to 60 inner wells of a 96 well round bottom plate, and incubated at 37 C for 30 min. Antibodies were added to serum free media to a stock concentration of 4× the final concentration (40 ug/ml). 50 ul of antibodies at 4× concentration were added directly to the PBMCS and incubated at 37 C for 30 min. After PBMCs were incubated with antibodies for 30 min, 100 ul of CMV (Astarte Biologics, Cat. #1004) at 2× concentration (1 ug/ml) directly to the cells and incubated for 4 days at 37 C. On Day 4, 10 ul of cell supernatant were collected to measure human IFN gamma concentration by ELISA via a human IFN-gamma ELISA kit (Invitrogen).

hGal3 peptides = experiment: ELISA of antibody binding to hGal3 peptides (Example 14); parameters: species or system human; conditions: 0.1 ug/ml antibody
Experimental: A library of 20 amino acid peptides each representing a certain regions of hGal3 (SEQ ID NO: 1) was produced. At least 2 ug/ml of the produced hGal3 peptide: peptide 1 (SEQ ID NO: 3), 5 (SEQ ID NO: 7), 6 (SEQ ID NO: 8), 8 (SEQ ID NO: 10), or 23 (SEQ ID NO: 25) in 50 ul of PBS was added to the wells of a 96-well ELISA plate (Thermo Fisher, 44-2404-21). As a positive control, 0.1 ug/ml of full-length human Galectin-3 protein (Acro Biosystems, GA3-H5129) in 100 ul of PBS was added to the wells of the ELISA plate. After incubating the plate at 4° C. overnight, the plate was washed three times with 300 ul of PBST per well. The plate was then blocked for an hour with 200 ul of 2% BSA in PBST per well at room temperature with gentle rocking. Thereafter, the 2% BSA in PBST was removed and 100 ul of 0.1 ug/ml of antibody in 2% BSA in PBST was added to the wells (FIG. 17A-B). As for negative control group, the antibodies were applied without the hGal3 peptides or the hGal3 protein.
The plate was incubated for an hour at room temperature with gentle rocking and then washed three times with 300 μl of PBST per well. […] The reaction was stopped with 50 ul of 1M HCl (VWR) per well and the plate was read using a plate reader (Molecular Devices) at absorbance of 450 nm.

B1: IMT001: anti-Gal3 monoclonal antibody (Immutics); printed as mIMT001 (IMT001), murine (antibody, V domains shown)
VH: QIQLVQSGPELKKPGETVKISCKASGYTFTNYGMNWVKQAPGKGLKWMGWINTNTGEPTYVEEFKGRFAFSLETSASTAYLQINNLKNEDTATYFCAPYDNFFAYWGQGTLVTVSA
VL: DIVITQDELSNPVTSGESVSISCRSSKSLLYKDGKTYLNWFLQRPGQSPQLLIYLMSTHASGVSDRFSGSGSGTDFTLEISRVKAEDVGVYYCQQLVDYPLTFGAGTKLELK
Human Gal3 protein
  epitope on hGal3, 20 amino acid peptide array: Peptides 5 and 6; also recorded: peptide_5
[1]
  Col1a1 staining, image quantification: 9.17 intensity units
  Col1a1 staining, qualitative: reduced levels of Col1a1 staining
  overall reduction in Col1a1: 48%
[2]
  interferon-gamma secretion: significantly increased levels
hGal3 peptides
  hGal3 peptides bound: 5 (SEQ ID NO: 7), 6 (SEQ ID NO: 8), and 8 (SEQ ID NO: 10)
